Measured values from patent US20080019991A1 (CYTOS BIOTECHNOLOGY, published 2008).

Target: T1, recombinant human RANK-hFc fusion protein (human, UniProt Q9Y6Q6 30-212, limits assumed)
T1 construct: also called hRANK; not shown: human Fc (hFc)
T1 sequence (looked up): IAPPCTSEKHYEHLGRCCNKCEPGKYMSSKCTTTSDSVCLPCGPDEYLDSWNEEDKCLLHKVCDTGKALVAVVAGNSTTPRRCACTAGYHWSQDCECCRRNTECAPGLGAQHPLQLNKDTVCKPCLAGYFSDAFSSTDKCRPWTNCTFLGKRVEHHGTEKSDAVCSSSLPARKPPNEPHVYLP
Test: ELISA, human RANKL coated at 10 µg/ml, anti-hFc-HRP detection
Procedure: To test whether the antibodies generated in mice have neutralizing activity, in vitro binding assays for both mouse and human RANKL and their cognate receptors mouse RANK and human RANK were established. ELISA plates were therefore coated with 10 μg/ml of either mouse or human RANKL protein and incubated with serial dilutions of a recombinant mouse RANK-hFc fusion protein or a recombinant human RANK-hFc fusion protein, respectively. Bound protein was detected with a horse raddish peroxidase conjugated anti-hFc antibody. […] ELISA plates were therefore coated with either mouse or human RANKL protein at a concentration of 10 μg/ml, and co-incubated with serial dilutions of a pool of mouse sera from day 35 and 0.35 nM mouse or human RANK-hFc fusion protein, respectively. Binding of receptor to immobilized RANKL protein was detected with horse raddish peroxidase conjugated anti-hFc antibody.

B1: human RANKL protein (ligand, UniProt O14788 140-317, looked up)
chain: IRAEKAMVDGSWLDLAKRSKLEAQPFAHLTINATDIPSGSHKVSLSSWYHDRGWAKISNMTFSNGKLIVNQDGFYYLYANICFRHHETSGDLATEYLQLMVYVTKTSIKIPSSHTLMKGGSTKYWSGNSEFHFYSINVGGFFKLRSGEEISIEVSNPSLLDPDQDATYFGAFKVRDID
notes: Coated on ELISA plates; also called hRANKL
**Q.** Does B1 bind?
**A.** binds
